According to article PMC5316886:

Target: recombinant XIAP, I. scapularis (as used in the native gel, the plate-coated ELISA and the ubiquitylation assay) (I. scapularis)
Test: ELISA; 0.2 μg of XIAP coated on the plate (0.5 M carbonate-bicarbonate pH 9.5); increasing concentrations of Bendless, room temperature 1 hour; detected with α-UbcH13

recombinant Bendless, I. scapularis (enzyme)
concentration at saturation of binding: 9.1 µM
